Measurements from paper PMC6179282.

Experiments:
[1] = target: Camelus dromedarius mu-class glutathione S-transferase (CdGSTM1) (Camelus dromedarius); test: SEC; Superdex 200 Increase, 0.25 mg CdGSTM1 equilibrated at pH 4.0, buffer with 150 mM NaCl at pH 4.0
[2] = target: Camelus dromedarius mu-class glutathione S-transferase (CdGSTM1) (Camelus dromedarius); test: cross-linking; 0.25% glutaraldehyde, room temperature, 15 min, CdGSTM1 0.5 mg/mL at pH 4.0, before and after SEC; SDS-PAGE
[3] = target: Camelus dromedarius mu-class glutathione S-transferase (CdGSTM1) (Camelus dromedarius); test: cross-linking; 0.25% glutaraldehyde, room temperature, 15 min, CdGSTM1 0.5 mg/mL at pH 7.0, before and after SEC; SDS-PAGE
[4] = target: Camelus dromedarius mu-class glutathione S-transferase (CdGSTM1) (Camelus dromedarius); test: SEC; analytical Superdex 200 Increase 10/300 GL, calibrated; CdGSTM1 2.5 mg/mL (also 0.25 mg loaded) in 50 mM phosphate buffer, 150 mM NaCl, pH 7.0

Measured: stoichiometry N

Camelus dromedarius mu-class glutathione S-transferase (CdGSTM1) (enzyme)
2: all assays above
